Consider eight molecules from US20110150901A1 (published 2011).

For assay [1], the target named is T1, recombinant human β-Klotho (UniProt Q86Z14 53-996). Kind of assay: ELISA. Background: An ELISA detects its analyte on a solid surface through an enzyme-linked reagent.
Assay [2] deals with T1, recombinant human β-Klotho. Kind of assay: binding.
Assay [3] deals with huR4. Kind of assay: ELISA.
For assay [4], the target named is huR1b. Description: ELISA.
The target in assay [5] is huR4. Kind of assay: Alphascreen inhibition; FGF21/BK+R4. For orientation: In Alpha technology, singlet oxygen from a donor bead excites a nearby acceptor bead.
The target of assay [6] is T1, recombinant human β-Klotho. Description: ELISA. The source holds these as a separate data set.

One may read the EC50 as the concentration at which the effect is half-maximal. As a reminder, the IC50 is the midpoint of a concentration-inhibition curve.

T1 sequence (Q86Z14 53-996): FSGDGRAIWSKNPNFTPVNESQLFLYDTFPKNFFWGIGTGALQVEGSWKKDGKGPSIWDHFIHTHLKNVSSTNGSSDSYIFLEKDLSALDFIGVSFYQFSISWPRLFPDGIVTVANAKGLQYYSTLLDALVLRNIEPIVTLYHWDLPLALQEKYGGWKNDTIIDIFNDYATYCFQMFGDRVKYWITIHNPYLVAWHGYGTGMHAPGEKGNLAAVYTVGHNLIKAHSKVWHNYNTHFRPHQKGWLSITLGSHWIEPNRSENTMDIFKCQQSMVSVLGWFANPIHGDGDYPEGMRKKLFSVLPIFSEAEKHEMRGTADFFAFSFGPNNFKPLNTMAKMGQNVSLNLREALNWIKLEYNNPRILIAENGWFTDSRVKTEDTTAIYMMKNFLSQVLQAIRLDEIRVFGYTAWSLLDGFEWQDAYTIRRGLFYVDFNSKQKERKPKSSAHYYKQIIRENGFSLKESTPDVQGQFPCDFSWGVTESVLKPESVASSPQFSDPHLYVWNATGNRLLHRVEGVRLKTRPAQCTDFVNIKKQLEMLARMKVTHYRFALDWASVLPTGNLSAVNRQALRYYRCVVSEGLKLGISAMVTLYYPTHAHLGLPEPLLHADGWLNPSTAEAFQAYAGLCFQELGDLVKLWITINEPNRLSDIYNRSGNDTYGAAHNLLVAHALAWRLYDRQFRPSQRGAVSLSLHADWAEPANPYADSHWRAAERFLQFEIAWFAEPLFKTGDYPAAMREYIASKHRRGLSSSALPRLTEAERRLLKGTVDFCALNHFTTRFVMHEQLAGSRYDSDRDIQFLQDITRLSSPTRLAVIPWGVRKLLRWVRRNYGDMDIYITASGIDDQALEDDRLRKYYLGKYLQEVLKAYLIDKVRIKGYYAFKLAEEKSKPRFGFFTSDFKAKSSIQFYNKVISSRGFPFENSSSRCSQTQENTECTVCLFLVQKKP

B1: β-Klotho-binding monomer bKmutM28 (designed binder)
chain: CPWFHHFKCRNGQRIPLHLVCDGVPDCGDDSDETDCGDSHILPFSTPGPST
For B1, in assay [1], the half-maximal effective concentration (EC50) came out at 214 nM.

B2: β-Klotho walked dimer BK_R1c_D15 (designed binder)
chain: CLPDEFQCGSGRCIPQTWVCDGLNDCGDGSDEPPAHCSAPASEPPGSLCRSNQFTCGNGNCIPQPWVCDGEDDCGDDSDEESCKEHT
As for B2, in assay [2], the EC50 was determined as 9.1 nM.

B3: R1c_M33 (designed binder)
chain: CRLNEFPCGSGSCISLHWVCDSVPDCRDDSDETDCPERT
For B3, the concentration giving a half-maximal response (EC50) in assay [3] is around 300 nM.

B4: R1c_M08 (designed binder)
chain: CGAGQFTCRDTNICISRAWRCDGVDDCEDNSDEADCSQDPEFHKV
For B4, the midpoint of the response in assay [4], the EC50, lay at 17 nM.

B5: R1c_M31 (designed binder)
chain: CLSDQFTCRSTNICLPLQWVCDGDDDCEDNSDEEDCSAPASEPPGSL
As for B5, the figures for the EC50 in assay [4] and in assay [3] were 112 nM and around 300 nM, respectively. The molecule also gave a half-inhibitory concentration (IC50) in assay [5] of 5000 nM.

B6: BK_RI_D05 (designed binder)
chain: CAAGQFRCHNSDTCLPGAWVCDGDNDCGDNSDEASCQKRTCHSFNQFECRNGQCIPLHLVCDGVPDCGDNSDETDCGDSHILPFSTPGPST
In the case of B6, in assay [3], the EC50 was determined as 45.1 nM.

B7: β-Klotho walked dimer BK_R1c_D14 (designed binder)
chain: CLPDEFQCGSGRCIPQTWVCDGLNDCGDGSDEPPAHCSAPASEPPGSLCRSDEFRCGNGRCIPLTWVCDGEDDCQDSSDETGCTTPGHT
Turning to B7, in assay [2], the 50% effective concentration (EC50) amounted to 23 nM.

B8: β-Klotho walked dimer bKWD01 (designed binder)
chain: CLPDEFQCGSGRCIPQHWLCDGLNDCGDGSDEPPAHCSAPASEPPGSLCRAGEFRCSNGRCVPLTWLCDGEDDCQDNSDEKNCAQPT
Regarding B8, the values for the EC50 in assay [6] and in assay [2] were below 0.4 nM and 0.05 nM, respectively.
